Legend:
cynomolgus (cyno) MS4A6A [1] = molecular target: T1, cynomolgus (cyno) MS4A6A (cynomolgus, UniProt Q9H2W1 1-246 (human entry)); test: flow cytometry, hybridoma supernatant, HEK293 transfected with cyno MS4A6A over parental HEK293; Screen 2
T1 construct: Full-length protein expressed in transfected HEK293, U937 or K562 cells (flow cytometry)
T1 chain: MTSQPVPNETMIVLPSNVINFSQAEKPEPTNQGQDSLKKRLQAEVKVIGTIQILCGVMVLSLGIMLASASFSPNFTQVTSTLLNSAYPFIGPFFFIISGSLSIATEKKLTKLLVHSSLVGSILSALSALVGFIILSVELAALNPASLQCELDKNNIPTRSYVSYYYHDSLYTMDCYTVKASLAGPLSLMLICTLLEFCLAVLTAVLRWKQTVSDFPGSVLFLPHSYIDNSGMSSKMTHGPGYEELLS
Experimental: (§1) Positive clones were expanded and then rescreened for specificity against HEK293 cells overexpressing cyno MS4A6A and parental HEK293 cells. Briefly, previously prepared, cryopreserved transiently-transfected cells were labeled with LIVE/DEAD Fixable Aqua Dead Cell Stain Kit (ThermoFisher Scientific L34957) on ice for 30 minutes. After a wash with PBS, 2×10⁵ cells were aliquoted per well in 96-well round bottom plates and incubated with 50 μl of culture supernatant on ice for 30 mins. […] Following this secondary incubation, the cells were again washed twice with ice-cold FACS buffer and resuspended in a final volume of 200 μl of FACS buffer. Analysis was performed on a FACS Canto system (BD Biosciences), with sort gates drawn to exclude dead (Aqua-positive) cells. […] The screen was repeated twice, and the numbers reported here represent the ratio of mean fluorescence level in transfected cells over parental cells.

MS4A6A ECL2 peptide = molecular target: T2, MS4A6A ECL2 peptide (human); test: array SPR (Carterra MX-96), antibody captured, peptide injected; both duplicates N/A
T2 construct: also called MS4A6A ECL-2 peptides
T2 peptide: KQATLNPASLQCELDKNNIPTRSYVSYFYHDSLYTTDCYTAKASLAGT
Experimental: (§2) Binding kinetic characterization of the purified antibodies to MS4A6A ECL1 and ECL2 peptides was performed by Carterra (South San Francisco, Calif.) using a proprietary array Surface Plasmon Resonance (SPR) instrument (MX-96) as follows. Antibodies were printed onto a CMD5OOD chip (Xantec #SPMX CMD500D lot #SC CMD500D0117.a Exp. 31.12.18) using the Continuous Flow Microspotter (CFM). First, the chip was activated with 100 mM MES pH 5.5, 100 μL EDC (133 mM final), 100 μL of S-NHS (33.3 mM final), for 7 minutes. A lawn of anti-mouse IgG-Fc (Jackson ImmunoResearch CAT #115-005-071 lot#130410) was injected for 15 minutes to establish a surface density of 10000-12000 RU, after which the chip surface was deactivated with 1 M ethanolamine at pH 8.5 for 10 minutes. Anti-MS4A6A antibodies in question, in the form of hybridoma supernatants diluted 2:1 with HBS-EP+buffer (Teknova CAT #H8022), were then printed as duplicates with a 20 minute and a 5 minutes print from the same sample solution. Control antibodies were diluted to 20 μ/ml for printing.
(§3) To perform kinetic analysis, the peptides in question were prepared in HBS-EP+buffer with lmg/ml BSA at final assay concentrations of 2000 nM, 400 nM, 80 nM, 16 nmM, and 3.2 nM. These were then injected on the chip for five minutes, followed by a seven-minute dissociation period at 8 uL per second in a non-regenerative kinetic series. Duplicate measurements for each anti-MS4A6A antibody were taken to ensure reproducibility.
(§4) Kₐ (association rate constant; Kₒₙ), Kd (dissociation rate constant; Koff) and KD (equilibrium constant) to MS4A6A ECL-2 peptides were calculated for each of the 23 anti-MS4A6A antibodies tested, the results of which are shown below in Table 5 (clones that bound too weakly to determine these values are denoted as N/A in Table 5).

MS4A6A ECL1 peptide = molecular target: T3, MS4A6A ECL1 peptide (human); test: array SPR (Carterra MX-96), antibody captured, peptide injected
T3 construct: the description elsewhere gives ECL1 as 68-84; Human and cyno ECL1 are said to be identical
T3 peptide: SASFSPNFTQVTSTLLNS
Experimental: as §2, §3, §4

BSA-MS4A6A-ECL2 peptide = molecular target: T4, BSA-MS4A6A-ECL2 peptide (human, BSA-conjugated); test: peptide ELISA, hybridoma supernatant
T4 construct: Synthetic peptide derived from ECL2, conjugated to BSA, coated on the ELISA plate; also called MS4A6A-ECL2 BSA conjugated peptide; BSA-MS4A6A-ELC2 peptide
T4 peptide: T2 peptide
Experimental: Anti-MS4A6A hybridoma supernatants were tested for binding to MS4A6A peptides derived from ECL1 (amino acid residues 68-85 of human MS4A6A of SEQ ID NO:1) and ECL2 (amino acid residues 138-185 of human MS4A6A of SEQ ID NO:1) sequences, using an enzyme-linked immunosorbent assay (ELISA). Briefly, 96-well polystyrene plates were coated with 1-10 μg/mL of synthetic free or BSA-conjugated peptides in coating buffer (0.05M carbonate buffer, pH9.6, Millipore Sigma C3041) overnight at 4° C. Coated plates were then blocked with ELISA diluent (PBS+0.5% BSA+0.05% Tween20) for 1-hour, washed 3×300 μL in PBST (PBS+0.05% Tween20, Thermo 28352), and then the antibodies were added at various dilutions (100-1000×) in ELISA diluent. After 30 mins incubation (room temperature, with shaking), the plates were washed 3×300 μl in PBST. A secondary anti-mouse HRP antibody (Jackson Immunoresearch CAT #115-035-003) was added at a 1:1000 dilution in ELISA diluent (50 μL/well) and incubated for 30 minutes at room temperature with shaking. After a final set of washes (3×300 μl in PBST), 50 μL of TMB substrate (BioFx TMBW-1000-01) was added and the reaction was then quenched after 5-10 mins with 50 μL of stop solution (BioFx BSTP-1000-01). The quenched reaction wells were detected for absorbance at […] with a BioTek Synergy Microplate Reader using GENS 2.04 software.

cynomolgus (cyno) MS4A6A [2] = molecular target: T1, cynomolgus (cyno) MS4A6A; test: flow cytometry, hybridoma supernatant, HEK293 transfected with cyno MS4A6A over parental HEK293; Screen 1
Experimental: as §1

ratio of APC MFI on MS4A6A+/HEK parental cells (cynomolgus (cyno) MS4A6A [1]): 7.6 ratio
binding result (MS4A6A ECL2 peptide): no binding (tested: 2000 nM)
binding result (MS4A6A ECL1 peptide): no binding (tested: 2000 nM)
binding result (BSA-MS4A6A-ECL2 peptide): no binding
ratio of APC MFI on MS4A6A+/HEK parental cells (cynomolgus (cyno) MS4A6A [2]): 7.5 ratio
B1: 6A-1 (antibody, V domains shown)
VH: EVQLQQSGPELVKPGASVKISCKASGYSFTGYYMHWVKQSPEDSLEWIGAINPSTGGSTYSQKFKDKATLTVDKSSSTAYMQLKSLTSEESAVYYCTRFDGYGYWGQGTLVTVSA
VL: DIVMTQAAFSNPVTLGTSASISCRSSKSLLHSNGITYLYWYLQKPGQSLQLLIYQMSNLASGVPDRFSGSGSGTDFTLRISRVEAEDVGVYYCAQNLELPWTFGGGTKLEIK
notes: Mouse hybridoma antibody, tested as hybridoma supernatant (mouse IgG, detected or captured via anti-mouse IgG Fc); also called anti-MS4A6A antibody 6A-1
